Test results published in the supplement of paper PMC12764529.
± gives the half width of the 95% confidence interval.

What was measured:
[1] = folding stability dG unfold from trypsin proteolysis; higher = more stable
In short: (§1)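 Designed mini-proteins with no cysteine and under 80 residues were kept only if AlphaFold2 dimer inter-PAE was above 15. In a PA-tagged cDNA display construct, they were digested with trypsin and chymotrypsin and then sequenced. K50 was inferred by Bayesian fitting of counts, and unfolding free energy was derived per protease or combined against a sequence-predicted unfolded-state K50 and a shared folded-state K50.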

[2] = folding stability dG unfold from chymotrypsin proteolysis; higher = more stable
In short: as §1

[3] = folding stability dG unfold (combined trypsin and chymotrypsin); higher = more stable
In short: as §1

SAGGSAGGSMVPGKLLVTITDPNNGLTTTLDLPLEVKTEEDIEAEVQKIKEENPGKKVSVKLLSAGGSAGGS [r12_65_JUSTAS]
folding stability dG unfold [1]: 1.65 ± 0.057 kcal/mol | folding stability dG unfold [2]: 1.687 ± 0.013 kcal/mol | folding stability dG unfold [3]: 1.69 ± 0.054 kcal/mol

SAGGSAGGSMVTPDGRLVIEIEVSEEDIEKLKEEARKKLGVKEVKVEVEEKDGKLKVRIVVEPSAGGSAGGS [r12_929_TrROS_Hall]
folding stability dG unfold [1]: 0.743 ± 0.092 kcal/mol | folding stability dG unfold [2]: 2.19 ± 0.15 kcal/mol | folding stability dG unfold [3]: 1.77 ± 0.29 kcal/mol

SAGGSAGGSMVVVRRLPDGRYLLEVRLEGESLRFEVDGEEEVERFAKALEELTGRPVEVLTVESAGGSAGGS [r12_783_TrMRF]
folding stability dG unfold [1]: 4.56 ± 0.12 kcal/mol | folding stability dG unfold [2]: 3.84 ± 0.043 kcal/mol | folding stability dG unfold [3]: 4.15 ± 0.061 kcal/mol

SAGGSAGGSMYIVNIKFYNPKTGKVLYIPIKTKKEKAEEIAKELAKKLPEIKYIKAEIKPDISSAGGSAGGS [r12_757_TrMRF]
folding stability dG unfold [1]: 1.21 ± 0.093 kcal/mol | folding stability dG unfold [2]: 1.74 ± 0.19 kcal/mol | folding stability dG unfold [3]: 1.59 ± 0.19 kcal/mol

SAGGSAGGSMYIVRIEVVNEETGKTEEIELEVSEEEAEELAKELAEKLPNIKEIKVEIRPLPESAGGSAGGS [r12_757_TrROS_Hall]
folding stability dG unfold [1]: 1.37 ± 0.15 kcal/mol | folding stability dG unfold [2]: 1.96 ± 0.051 kcal/mol | folding stability dG unfold [3]: 1.66 ± 0.21 kcal/mol

SAGGSAGGSMYRVRIKVRNRETGEWLEIELEVPEGVTEEELKAALRELFPDAEIVDIEIEKLPSAGGSAGGS [r12_738_TrROS_Hall]
folding stability dG unfold [1]: 3.68 ± 0.14 kcal/mol | folding stability dG unfold [2]: 4.34 ± 0.11 kcal/mol | folding stability dG unfold [3]: 4.12 ± 0.2 kcal/mol

SAGGSAGGSMYVVKIKLKVYGENGEEYYFELELEVPEDELGEIEIELPGENLEFEAEVEVLPGSAGGSAGGS [r12_354_TrMRF]
folding stability dG unfold [1]: 2.63 ± 0.15 kcal/mol | folding stability dG unfold [2]: 3.73 ± 0.12 kcal/mol | folding stability dG unfold [3]: 3.38 ± 0.14 kcal/mol

SAGGSAGGSNGDKKPPVKWEWVMIEIEIPPDDIDEIAEEFPGFSVNYERDNGHYRVNIMIPVPYSAGGSAGG [r6_686_TrROS]
folding stability dG unfold [1]: 1.35 ± 0.021 kcal/mol | folding stability dG unfold [2]: 1.94 ± 0.093 kcal/mol | folding stability dG unfold [3]: 1.73 ± 0.089 kcal/mol

SAGGSAGGSNMPIKNVELHPLPNGWYLIKIRYGGKTRTFLFPPGAPFEIPLPPGMEIDIYPLNSAGGSAGGS [r12_373_TrROS]
folding stability dG unfold [1]: 3.73 ± 0.066 kcal/mol | folding stability dG unfold [2]: 3.933 ± 0.038 kcal/mol | folding stability dG unfold [3]: 3.84 ± 0.043 kcal/mol

SAGGSAGGSNNPDKKKKPRYVVIQIELKWYPNPNGQWSPELEITATVPAGDLEDKDDAIKDIISAGGSAGGS [r12_933_TrROS]
folding stability dG unfold [1]: 2.13 ± 0.098 kcal/mol | folding stability dG unfold [2]: 1.29 ± 0.064 kcal/mol | folding stability dG unfold [3]: 1.68 ± 0.17 kcal/mol

SAGGSAGGSNWYQFTIPFPIPPDEPVEIKLPDGWEIHEIPPNSGRITIYMPMNNMDAIKEAIGSAGGSAGGS [r12_476_TrROS]
folding stability dG unfold [1]: 1.214 ± 0.012 kcal/mol | folding stability dG unfold [2]: 1.01 ± 0.045 kcal/mol | folding stability dG unfold [3]: 1.19 ± 0.056 kcal/mol

SAGGSAGGSPANIKITTTLDTETGYLTIVAYNPATGKVTVLTAKIYGNVPHIDGLEALFGALGSAGGSAGGS [r20_131_TrMRF]
folding stability dG unfold [1]: 2.07 ± 0.086 kcal/mol | folding stability dG unfold [2]: 3.02 ± 0.078 kcal/mol | folding stability dG unfold [3]: 2.7 ± 0.18 kcal/mol

SAGGSAGGSPAPDVTIEVKVTYDPETGALRIEVEATIPGGGKITIEYTIPPLDKIEIVGVKIESAGGSAGGS [r12_1029_TrMRF]
folding stability dG unfold [1]: 2.63 ± 0.15 kcal/mol | folding stability dG unfold [2]: 3.83 ± 0.2 kcal/mol | folding stability dG unfold [3]: 3.6 ± 0.26 kcal/mol

SAGGSAGGSPDAPPPPVNVVVPIPESELLSEEELPGGTTLRTYRLPDGTEITVRTAPDGRVTVDSAGGSAGG [r6_119_JUSTAS]
folding stability dG unfold [1]: 3.01 ± 0.16 kcal/mol | folding stability dG unfold [2]: 3.86 ± 0.059 kcal/mol | folding stability dG unfold [3]: 3.57 ± 0.13 kcal/mol

SAGGSAGGSPEVLASFPLKDGSVVIVARRPGEIRVLVVKSSDLENIPELKDIKVFPTFGDDPVSAGGSAGGS [r12_343_TrMRF]
folding stability dG unfold [1]: 1.03 ± 0.041 kcal/mol | folding stability dG unfold [2]: 1.18 ± 0.077 kcal/mol | folding stability dG unfold [3]: 1.19 ± 0.05 kcal/mol

SAGGSAGGSPGNYIIQIEIKFPGRKHTWHVDSPEEALEQLKNDLEKQHPNAPITDVEIEVFPLSAGGSAGGS [r12_429_TrROS]
folding stability dG unfold [1]: 0.791 ± 0.2 kcal/mol | folding stability dG unfold [2]: 0.155 ± 0.94 kcal/mol | folding stability dG unfold [3]: 0.556 ± 0.46 kcal/mol

SAGGSAGGSPIEEIVAELKVPPGTTVKFPDGSTITLNSREDLLKLAKEGYPPEKLKDITVEAVSAGGSAGGS [r12_430_JUSTAS]
folding stability dG unfold [1]: 0.308 ± 0.071 kcal/mol | folding stability dG unfold [2]: 1.08 ± 0.059 kcal/mol | folding stability dG unfold [3]: 0.856 ± 0.089 kcal/mol

SAGGSAGGSPKPIPIKIDEVWPNPDNGKDYIVKIEFPDGKKHTFTSPEDIRKLPGFDVEVYELSAGGSAGGS [r20_192_TrROS]
folding stability dG unfold [1]: 0.123 ± 0.058 kcal/mol | folding stability dG unfold [2]: 0.783 ± 0.27 kcal/mol | folding stability dG unfold [3]: 0.621 ± 0.2 kcal/mol

SAGGSAGGSPKVTTSTSSSVLGNGRLESTVSNPDLGVTTLTLTDPESDVVTTFTETAGSTTPAASAGGSAGG [r6_757_JUSTAS]
folding stability dG unfold [1]: 0.132 ± 0.025 kcal/mol | folding stability dG unfold [2]: 0.815 ± 0.037 kcal/mol | folding stability dG unfold [3]: 0.606 ± 0.031 kcal/mol

SAGGSAGGSPNPKNVKIYLVALDPDKPEVVAEASFNITVDTEEELEAILKELVPLFPGAKVFASAGGSAGGS [r12_1043_TrMRF]
folding stability dG unfold [1]: 0.853 ± 0.086 kcal/mol | folding stability dG unfold [2]: 1.25 ± 0.12 kcal/mol | folding stability dG unfold [3]: 1.13 ± 0.1 kcal/mol

SAGGSAGGSPNTVPIPIRVEWYDPKDGEPKDEHPFNINFKTEEEAEDIIDNIAPDHPGMKIEISAGGSAGGS [r12_1043_TrROS]
folding stability dG unfold [1]: 0.233 ± 0.096 kcal/mol | folding stability dG unfold [2]: -0.322 ± 0.11 kcal/mol | folding stability dG unfold [3]: 0.0133 ± 0.14 kcal/mol

SAGGSAGGSPPDFVIQPEVEHTRDPENGKHEATVKIEIMDGRPIEIPFKSPEDAEDAIKELINSAGGSAGGS [r12_389_TrROS]
folding stability dG unfold [1]: 1.14 ± 0.079 kcal/mol | folding stability dG unfold [2]: 0.382 ± 0.098 kcal/mol | folding stability dG unfold [3]: 0.829 ± 0.13 kcal/mol

SAGGSAGGSPPNKEVYIRIKIEYDGPNGQPIMEFWIPADEITPSFIEELMNRGGIKVDIELIPSAGGSAGGS [r12_398_TrROS]
folding stability dG unfold [1]: 2.66 ± 0.085 kcal/mol | folding stability dG unfold [2]: 2.99 ± 0.032 kcal/mol | folding stability dG unfold [3]: 2.84 ± 0.1 kcal/mol

SAGGSAGGSPRVLEIRRYPLPDGGYLLEVRFEKETLFIPVPENVPPHSLEEIEIPLLLGEKPESAGGSAGGS [r12_673_TrMRF]
folding stability dG unfold [1]: 1.49 ± 0.022 kcal/mol | folding stability dG unfold [2]: 1.6 ± 0.027 kcal/mol | folding stability dG unfold [3]: 1.6 ± 0.044 kcal/mol

SAGGSAGGSPSEEARKKGGLTLTITLRYPDGSTVTITYPVSTPLTIPEEFAKNPPKIESIELSSAGGSAGGS [r12_161_JUSTAS]
folding stability dG unfold [1]: 1.23 ± 0.019 kcal/mol | folding stability dG unfold [2]: 1.38 ± 0.051 kcal/mol | folding stability dG unfold [3]: 1.34 ± 0.073 kcal/mol

SAGGSAGGSPSVLDQVKRMIQDRIQERFGLPPGYTVQVTIDVEIDDGGIRIKKIKAEIQPPDNSAGGSAGGS [r12_481_TrROS]
folding stability dG unfold [1]: 2.12 ± 0.095 kcal/mol | folding stability dG unfold [2]: 2.42 ± 0.054 kcal/mol | folding stability dG unfold [3]: 2.37 ± 0.17 kcal/mol

SAGGSAGGSPTYTIDVEKYPDGYYFLKIWMPGHNRKIEHPIPPDNPDKIDEITITPNGKIKIDSAGGSAGGS [r20_11_TrROS]
folding stability dG unfold [1]: 0.161 ± 0.13 kcal/mol | folding stability dG unfold [2]: 0.309 ± 0.24 kcal/mol | folding stability dG unfold [3]: 0.263 ± 0.17 kcal/mol

SAGGSAGGSPVFESPEQAKAFLDNVPADSTVLIAVKNPETGEWQLFVVKVPPKRPVGYPGDKDSAGGSAGGS [r12_393_TrMRF]
folding stability dG unfold [1]: 1.08 ± 0.065 kcal/mol | folding stability dG unfold [2]: 1.79 ± 0.072 kcal/mol | folding stability dG unfold [3]: 1.56 ± 0.085 kcal/mol

SAGGSAGGSPVIAVRVKRIEVTYDAATGRLTVRIEVEVDGKTYTITVPPGAEIKPGDTLLIEPSAGGSAGGS [r20_49_TrROS_Hall]
folding stability dG unfold [1]: 4.23 ± 0.098 kcal/mol | folding stability dG unfold [2]: 4.434 ± 0.038 kcal/mol | folding stability dG unfold [3]: 4.375 ± 0.041 kcal/mol

SAGGSAGGSPVVTVENVTRPSDYYTYTFKLPDGTVITLDAKSEEEAREKAKELGLENLNFKTEESAGGSAGG [r6_601_JUSTAS]
folding stability dG unfold [1]: 3.15 ± 0.19 kcal/mol | folding stability dG unfold [2]: 3.88 ± 0.13 kcal/mol | folding stability dG unfold [3]: 3.8 ± 0.14 kcal/mol

SAGGSAGGSPYTIMYPIPGDTVEEVKDIAKEIMEHFPNFKITVSVEPPKDGQYWVTIELEMPDSAGGSAGGS [r12_425_TrROS]
folding stability dG unfold [1]: 1.87 ± 0.11 kcal/mol | folding stability dG unfold [2]: 2.23 ± 0.049 kcal/mol | folding stability dG unfold [3]: 2.09 ± 0.15 kcal/mol

SAGGSAGGSRIIFRIPPEFRENMPIEEIVEEFLPPGMPVEIEWERTPDPWYVTVDIEIPPGQLSAGGSAGGS [r12_716_TrROS]
folding stability dG unfold [1]: 0.364 ± 0.16 kcal/mol | folding stability dG unfold [2]: 0.325 ± 0.33 kcal/mol | folding stability dG unfold [3]: 0.334 ± 0.27 kcal/mol

SAGGSAGGSRKTILFRFPDGMMIKISLEENPNGNKRVRVTVYNPDNGKKRRMPADELPPNAKISAGGSAGGS [r12_797_TrROS]
folding stability dG unfold [1]: 1.14 ± 0.079 kcal/mol | folding stability dG unfold [2]: 3.13 ± 0.09 kcal/mol | folding stability dG unfold [3]: 2.64 ± 0.15 kcal/mol

SAGGSAGGSRLGLEEFERIAREIAEELGISDLVAEVEELEDDYALLTIYNPETGEKLEILVPGSAGGSAGGS [r12_1000_TrMRF]
folding stability dG unfold [1]: 1.13 ± 0.053 kcal/mol | folding stability dG unfold [2]: 0.898 ± 0.025 kcal/mol | folding stability dG unfold [3]: 1.07 ± 0.09 kcal/mol

SAGGSAGGSSAPPGEVRTEAVSLTVRSTVPITYPNSPTTTLSLTTTLTVTLTREVSPVRPEVESAGGSAGGS [r20_14_JUSTAS]
folding stability dG unfold [1]: 2.88 ± 0.21 kcal/mol | folding stability dG unfold [2]: 3.84 ± 0.085 kcal/mol | folding stability dG unfold [3]: 3.34 ± 0.22 kcal/mol

SAGGSAGGSSIGRTEYIPEENLIVREEPETGLTIITKKPPNGPNIVYTIEPETGEKTVEESLISAGGSAGGS [r12_55_JUSTAS]
folding stability dG unfold [1]: 0.445 ± 0.067 kcal/mol | folding stability dG unfold [2]: -0.0944 ± 0.22 kcal/mol | folding stability dG unfold [3]: 0.292 ± 0.2 kcal/mol
